In the test the test system is HEK293FT cells transfected with TF library. Description: Screening of TF condensates based on fluorescent puncta. It counts as cell-based. To be noted: Figure 1B numerical data; TF library screen, one value per transcriptional factor. Here is the method:
TF plasmids were automatically added to black-walled 384-well plates at 80 ng per well to reach a final concentration of 1.6 μg/ml. Polyethylenimine (PEI, Sigma) was then added to the plasmid-loaded plates at 240 ng per well (4.8 μg/ml). Subsequently, HEK293FT cells were seeded into the plate at 2000 cells per well. After 60 h, cells were cultured in medium with or without glucose for 12 h, and then fixed with 4% paraformaldehyde (PFA) at room temperature for 30 min. After three washes with PBS, fixed cells were permeabilized with 0.05% Triton X-100 for 15 min. Thereafter, cells were blocked with 5% BSA for 1 h, and then incubated overnight with anti-Flag (Sigma F3165, 1:200) and anti-GAL4 (Abbkine ABP57232, 1:200) primary antibodies at 4 °C. The cells were then gently washed with PBS, followed by being incubated with Alexa Fluor Plus 488 goat anti-mouse IgG secondary antibody (Thermo A32723, 1:400) or Alexa Fluor Plus 488 goat anti-rabbit IgG secondary antibody (Thermo A32731, 1:400) for 1 h. The plates were kept at 4 °C in the dark before being analyzed using an Opera System (Perkin Elmer). Fifty random fields per well were scanned and analyzed using the Columbus Plus Image Data Storage and Analysis System (Perkin Elmer).

B1: EID1 (protein, UniProt Q9Y6B2 1-187, looked up)
EP300-interacting inhibitor …: MSEMAELSELYEESSDLQMDVMPGEGDLPQMEVGSGSRELSLRPSRSGAQQLEEEGPMEEEEAQPMAAPEGKRSLANGPNAGEQPGQVAGADFESEDEGEEFDDWEDDYDYPEEEQLSGAGYRVSAALEEADKMFLRTREPALDGGFQMHYEKTPFDQLAFIEELFSLMVVNRLTEELGCDEIIDRE
Regarding B1, the “Z score of condensed fraction” value was 1.007.

B2: ENY2 (protein, UniProt Q9NPA8 1-101, looked up)
Transcription and mRNA export …: MVVSKMNKDAQMRAAINQKLIETGERERLKELLRAKLIECGWKDQLKAHCKEVIKEKGLEHVTVDDLVAEITPKGRALVPDSVKKELLQRIRTFLAQHASL
In the case of B2, the “Z score of condensed fraction” value is -0.6608.

B3: ELK1 (protein, UniProt P19419 1-428, looked up)
ETS domain-containing protein …: MDPSVTLWQFLLQLLREQGNGHIISWTSRDGGEFKLVDAEEVARLWGLRKNKTNMNYDKLSRALRYYYDKNIIRKVSGQKFVYKFVSYPEVAGCSTEDCPPQPEVSVTSTMPNVAPAAIHAAPGDTVSGKPGTPKGAGMAGPGGLARSSRNEYMRSGLYSTFTIQSLQPQPPPHPRPAVVLPSAAPAGAAAPPSGSRSTSPSPLEACLEAEEAGLPLQVILTPPEAPNLKSEELNVEPGLGRALPPEVKVEGPKEELEVAGERGFVPETTKAEPEVPPQEGVPARLPAVVMDTAGQAGGHAASSPEISQPQKGRKPRDLELPLSPSLLGGPGPERTPGSGSGSGLQAPGPALTPSLLPTHTLTPVLLTPSSLPPSIHFWSTLSPIAPRSPAKLSFQFPSSGSAQVHIPSISVDGLSTPVVLSPGPQKP
In the case of B3, the “Z score of condensed fraction” value is on record as -0.5027.

B4: ADNP (protein, UniProt Q9H2P0 1-1102, looked up)
Activity-dependent …: MFQLPVNNLGSLRKARKTVKKILSDIGLEYCKEHIEDFKQFEPNDFYLKNTTWEDVGLWDPSLTKNQDYRTKPFCCSACPFSSKFFSAYKSHFRNVHSEDFENRILLNCPYCTFNADKKTLETHIKIFHAPNASAPSSSLSTFKDKNKNDGLKPKQADSVEQAVYYCKKCTYRDPLYEIVRKHIYREHFQHVAAPYIAKAGEKSLNGAVPLGSNAREESSIHCKRCLFMPKSYEALVQHVIEDHERIGYQVTAMIGHTNVVVPRSKPLMLIAPKPQDKKSMGLPPRIGSLASGNVRSLPSQQMVNRLSIPKPNLNSTGVNMMSSVHLQQNNYGVKSVGQGYSVGQSMRLGLGGNAPVSIPQQSQSVKQLLPSGNGRSYGLGSEQRSQAPARYSLQSANASSLSSGQLKSPSLSQSQASRVLGQSSSKPAAAATGPPPGNTSSTQKWKICTICNELFPENVYSVHFEKEHKAEKVPAVANYIMKIHNFTSKCLYCNRYLPTDTLLNHMLIHGLSCPYCRSTFNDVEKMAAHMRMVHIDEEMGPKTDSTLSFDLTLQQGSHTNIHLLVTTYNLRDAPAESVAYHAQNNPPVPPKPQPKVQEKADIPVKSSPQAAVPYKKDVGKTLCPLCFSILKGPISDALAHHLRERHQVIQTVHPVEKKLTYKCIHCLGVYTSNMTASTITLHLVHCRGVGKTQNGQDKTNAPSRLNQSPSLAPVKRTYEQMEFPLLKKRKLDDDSDSPSFFEEKPEEPVVLALDPKGHEDDSYEARKSFLTKYFNKQPYPTRREIEKLAASLWLWKSDIASHFSNKRKKCVRDCEKYKPGVLLGFNMKELNKVKHEMDFDAEWLFENHDEKDSRVNASKTADKKLNLGKEDDSSSDSFENLEEESNESGSPFDPVFEVEPKISNDNPEEHVLKVIPEDASESEEKLDQKEDGSKYETIHLTEEPTKLMHNASDSEVDQDDVVEWKDGASPSESGPGSQQVSDFEDNTCEMKPGTWSDESSQSEDARSSKPAAKKKATMQGDREQLKWKNSSYGKVEGFWSKDQSQWKNASENDERLSNPQIEWQNSTIDSEDGEQFDNMTDGVAEPMHGSLAGVKLSSQQA
Turning to B4, the “Z score of condensed fraction” value was -0.6304.

B5: ERCC3 (protein, UniProt P19447 1-782, looked up)
General transcription and DNA …: MGKRDRADRDKKKSRKRHYEDEEDDEEDAPGNDPQEAVPSAAGKQVDESGTKVDEYGAKDYRLQMPLKDDHTSRPLWVAPDGHIFLEAFSPVYKYAQDFLVAIAEPVCRPTHVHEYKLTAYSLYAAVSVGLQTSDITEYLRKLSKTGVPDGIMQFIKLCTVSYGKVKLVLKHNRYFVESCHPDVIQHLLQDPVIRECRLRNSEGEATELITETFTSKSAISKTAESSGGPSTSRVTDPQGKSDIPMDLFDFYEQMDKDEEEEEETQTVSFEVKQEMIEELQKRCIHLEYPLLAEYDFRNDSVNPDINIDLKPTAVLRPYQEKSLRKMFGNGRARSGVIVLPCGAGKSLVGVTAACTVRKRCLVLGNSAVSVEQWKAQFKMWSTIDDSQICRFTSDAKDKPIGCSVAISTYSMLGHTTKRSWEAERVMEWLKTQEWGLMILDEVHTIPAKMFRRVLTIVQAHCKLGLTATLVREDDKIVDLNFLIGPKLYEANWMELQNNGYIAKVQCAEVWCPMSPEFYREYVAIKTKKRILLYTMNPNKFRACQFLIKFHERRNDKIIVFADNVFALKEYAIRLNKPYIYGPTSQGERMQILQNFKHNPKINTIFISKVGDTSFDLPEANVLIQISSHGGSRRQEAQRLGRVLRAKKGMVAEEYNAFFYSLVSQDTQEMAYSTKRQRFLVDQGYSFKVITKLAGMEEEDLAFSTKEEQQQLLQKVLAATDLDAEEEVVAGEFGSRSSQASRRFGTMSSMSGADDTVYMEYHSSRSKAPSKHVHPLFKRFRK
On to B5, for which the “Z score of condensed fraction” value is listed as -0.7686.

B6: AEBP2 (protein, UniProt Q6ZN18 2-517, looked up)
Zinc finger protein AEBP2: AAAITDMADLEELSRLSPLPPGSPGSAARGRAEPPEEEEEEEEEEEEAEAEAVAALLLNGGSGGGGGGGGGGVGGGEAETMSEPSPESASQAGEDEDEEEDDEEEEDESSSSGGGEEESSAESLVGSSGGSSSDETRSLSPGAASSSSGDGDGKEGLEEPKGPRGSQGGGGGGSSSSSVVSSGGDEGYGTGGGGSSATSGGRRGSLEMSSDGEPLSRMDSEDSISSTIMDVDSTISSGRSTPAMMNGQGSTTSSSKNIAYNCCWDQCQACFNSSPDLADHIRSIHVDGQRGGVFVCLWKGCKVYNTPSTSQSWLQRHMLTHSGDKPFKCVVGGCNASFASQGGLARHVPTHFSQQNSSKVSSQPKAKEESPSKAGMNKRRKLKNKRRRSLPRPHDFFDAQTLDAIRHRAICFNLSAHIESLGKGHSVVFHSTVIAKRKEDSGKIKLLLHWMPEDILPDVWVNESERHQLKTKVVHLSKLPKDTALLLDPNIYRTMPQKRLKRTLIRKVFNLYLSKQ
On to B6, for which the “Z score of condensed fraction” value is 0.1647.

B7: EMX1 (protein, UniProt Q04741 1-290, looked up)
Homeobox protein EMX1: MCLAGCTPRKAAAPGRGALPRARLPRTAPAAATMFQPAAKRGFTIESLVAKDGGTGGGTGGGGAGSHLLAAAASEEPLRPTALNYPHPSAAEAAFVSGFPAAAAAGAGRSLYGGPELVFPEAMNHPALTVHPAHQLGASPLQPPHSFFGAQHRDPLHFYPWVLRNRFFGHRFQASDVPQDGLLLHGPFARKPKRIRTAFSPSQLLRLERAFEKNHYVVGAERKQLAGSLSLSETQVKVWFQNRRTKYKRQKLEEEGPESEQKKKGSHHINRWRIATKQANGEDIDVTSND
Regarding B7, the “Z score of condensed fraction” value is -0.9497.

B8: ERF (protein, UniProt P50548 1-548, looked up)
ETS domain-containing …: MKTPADTGFAFPDWAYKPESSPGSRQIQLWHFILELLRKEEYQGVIAWQGDYGEFVIKDPDEVARLWGVRKCKPQMNYDKLSRALRYYYNKRILHKTKGKRFTYKFNFNKLVLVNYPFIDVGLAGGAVPQSAPPVPSGGSHFRFPPSTPSEVLSPTEDPRSPPACSSSSSSLFSAVVARRLGRGSVSDCSDGTSELEEPLGEDPRARPPGPPDLGAFRGPPLARLPHDPGVFRVYPRPRGGPEPLSPFPVSPLAGPGSLLPPQLSPALPMTPTHLAYTPSPTLSPMYPSGGGGPSGSGGGSHFSFSPEDMKRYLQAHTQSVYNYHLSPRAFLHYPGLVVPQPQRPDKCPLPPMAPETPPVPSSASSSSSSSSSPFKFKLQPPPLGRRQRAAGEKAVAGADKSGGSAGGLAEGAGALAPPPPPPQIKVEPISEGESEEVEVTDISDEDEEDGEVFKTPRAPPAPPKPEPGEAPGASQCMPLKLRFKRRWSEDCRLEGGGGPAGGFEDEGEDKKVRGEGPGEAGGPLTPRRVSSDLQHATAQLSLEHRDS
For B8, the “Z score of condensed fraction” value was -0.2253.

B9: AES (protein, UniProt Q08117 1-197, looked up)
TLE family member 5: MMFPQSRHSGSSHLPQQLKFTTSDSCDRIKDEFQLLQAQYHSLKLECDKLASEKSEMQRHYVMYYEMSYGLNIEMHKQAEIVKRLNGICAQVLPYLSQEHQQQVLGAIERAKQVTAPELNSIIRQQLQAHQLSQLQALALPLTPLPVGLQPPSLPAVSAGTGLLSLSALGSQAHLSKEDKNGHDGDTHQEDDGEKSD
As for B9, the “Z score of condensed fraction” value is -0.7544.

B10: EN2 (protein, UniProt P19622 1-333, looked up)
Homeobox protein engrailed-2: MEENDPKPGEAAAAVEGQRQPESSPGGGSGGGGGSSPGEADTGRRRALMLPAVLQAPGNHQHPHRITNFFIDNILRPEFGRRKDAGTCCAGAGGGRGGGAGGEGGASGAEGGGGAGGSEQLLGSGSREPRQNPPCAPGAGGPLPAAGSDSPGDGEGGSKTLSLHGGAKKGGDPGGPLDGSLKARGLGGGDLSVSSDSDSSQAGANLGAQPMLWPAWVYCTRYSDRPSSGPRSRKPKKKNPNKEDKRPRTAFTAEQLQRLKAEFQTNRYLTEQRRQSLAQELSLNESQIKIWFQNKRAKIKKATGNKNTLAVHLMAQGLYNHSTTAKEGKSDSE
B10: the “Z score of condensed fraction” value was 2.005.

B11: ELF3 (protein, UniProt P78545 1-371, looked up)
ETS-related transcription …: MAATCEISNIFSNYFSAMYSSEDSTLASVPPAATFGADDLVLTLSNPQMSLEGTEKASWLGEQPQFWSKTQVLDWISYQVEKNKYDASAIDFSRCDMDGATLCNCALEELRLVFGPLGDQLHAQLRDLTSSSSDELSWIIELLEKDGMAFQEALDPGPFDQGSPFAQELLDDGQQASPYHPGSCGAGAPSPGSSDVSTAGTGASRSSHSSDSGGSDVDLDPTDGKLFPSDGFRDCKKGDPKHGKRKRGRPRKLSKEYWDCLEGKKSKHAPRGTHLWEFIRDILIHPELNEGLMKWENRHEGVFKFLRSEAVAQLWGQKKKNSNMTYEKLSRAMRYYYKREILERVDGRRLVYKFGKNSSGWKEEEVLQSRN
Turning to B11, the “Z score of condensed fraction” value is given as -0.7241.

B12: EDF1 (protein, UniProt O60869 2-148, looked up)
Endothelial …: AESDWDTVTVLRKKGPTAAQAKSKQAILAAQRRGEDVETSKKWAAGQNKQHSITKNTAKLDRETEELHHDRVTLEVGKVIQQGRQSKGLTQKDLATKINEKPQVIADYESGRAIPNNQVLGKIERAIGLKLRGKDIGKPIEKGPRAK
B12: the “Z score of condensed fraction” value is reported as -0.3636.

(Values after publication PMC11574045, “A cofactor-induced repressive type of transcription factor condensation can be induced by synthetic peptides to suppress tumorigenesis” (The EMBO Journal, 2024).)
